Paper PMC10397247

Key:
[1] = molecular target: T1, 4H340-AA; assay: two-hybrid library CCmax; conditions: mean of both orientations;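 also: natural log of median RNA to DNA barcode read ratio; higher means stronger binding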
T1 chain: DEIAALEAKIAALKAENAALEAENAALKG

[2] = molecular target: T2, 4H2648-AA; assay: two-hybrid library CCmax; conditions: mean of both orientations;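 also: natural log of median RNA to DNA barcode read ratio; higher means stronger binding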
T2 chain: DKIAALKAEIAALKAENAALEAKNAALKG

[3] = molecular target: T3, 4H2198-AA; assay: two-hybrid library CCmax; conditions: mean of both orientations;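 also: natural log of median RNA to DNA barcode read ratio; higher means stronger binding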
T3 chain: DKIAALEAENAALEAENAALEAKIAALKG

[4] = molecular target: T4, 4H3056-AA; assay: two-hybrid library CCmax; conditions: mean of both orientations;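 also: natural log of median RNA to DNA barcode read ratio; higher means stronger binding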
T4 chain: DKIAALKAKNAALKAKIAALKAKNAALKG

[5] = molecular target: T5, 4H1594-AA; assay: two-hybrid library CCmax; conditions: mean of both orientations;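 also: natural log of median RNA to DNA barcode read ratio; higher means stronger binding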
T5 chain: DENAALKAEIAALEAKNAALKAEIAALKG

[6] = molecular target: T6, 4H3631-AA; assay: two-hybrid library CCmax;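 also: natural log of median RNA to DNA barcode read ratio; higher means stronger binding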
T6 chain: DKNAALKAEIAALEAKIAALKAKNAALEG

[7] = molecular target: T7, 4H32-AA; assay: two-hybrid library CCmax; conditions: mean of both orientations
T7 chain: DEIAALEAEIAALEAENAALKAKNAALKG

[8] = molecular target: T8, 4H2611-AA; assay: two-hybrid library CCmax; conditions: mean of both orientations
T8 chain: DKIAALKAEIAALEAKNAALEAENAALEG

[9] = molecular target: T9, 4H3718-AA; assay: two-hybrid library CCmax; conditions: mean of both orientations
T9 chain: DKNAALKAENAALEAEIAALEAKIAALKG

[10] = molecular target: T10, 4H3413-AA; assay: two-hybrid library CCmax; conditions: mean of both orientations
T10 chain: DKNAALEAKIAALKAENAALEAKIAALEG

[11] = molecular target: T11, 4H3697-AA; assay: two-hybrid library CCmax; conditions: mean of both orientations
T11 chain: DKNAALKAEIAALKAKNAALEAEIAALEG

[12] = molecular target: T12, 4H1845-AA; assay: two-hybrid library CCmax; conditions: mean of both orientations
T12 chain: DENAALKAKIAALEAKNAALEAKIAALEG

[13] = molecular target: T13, 4H3133-AA; assay: two-hybrid library CCmax; conditions: mean of both orientations
T13 chain: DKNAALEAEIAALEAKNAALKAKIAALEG

[14] = molecular target: T14, 4H1513-AA; assay: two-hybrid library CCmax; conditions: mean of both orientations
T14 chain: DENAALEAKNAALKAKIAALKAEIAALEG

[15] = molecular target: T15, 4H3378-AA; assay: two-hybrid library CCmax
T15 chain: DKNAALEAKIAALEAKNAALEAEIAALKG

[16] = molecular target: T16, 4H2907-AA; assay: two-hybrid library CCmax; conditions: mean of both orientations
T16 chain: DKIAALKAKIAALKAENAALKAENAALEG

[17] = molecular target: T17, 4H1388-AA; assay: two-hybrid library CCmax; conditions: mean of both orientations
T17 chain: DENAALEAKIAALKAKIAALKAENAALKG

[18] = molecular target: T18, 4H2553-AA; assay: two-hybrid library CCmax; conditions: mean of both orientations
T18 chain: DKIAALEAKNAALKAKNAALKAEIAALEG

[19] = molecular target: T19, 4H2620-AA; assay: two-hybrid library CCmax; conditions: mean of both orientations
T19 chain: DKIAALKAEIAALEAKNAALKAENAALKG

[20] = molecular target: T20, 4H3588-AA; assay: two-hybrid library CCmax; conditions: mean of both orientations
T20 chain: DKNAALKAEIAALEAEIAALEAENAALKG

[21] = molecular target: T21, 4H1629-AA; assay: two-hybrid library CCmax; conditions: mean of both orientations
T21 chain: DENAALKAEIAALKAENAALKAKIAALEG

[22] = molecular target: T22, 4H1401-AA; assay: two-hybrid library CCmax; conditions: mean of both orientations
T22 chain: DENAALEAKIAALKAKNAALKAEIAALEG

[23] = molecular target: T23, 4H697-AA; assay: two-hybrid library CCmax; conditions: mean of both orientations
T23 chain: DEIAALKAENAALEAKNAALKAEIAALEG

[24] = molecular target: T24, 4H384-AA; assay: two-hybrid library CCmax; conditions: mean of both orientations
T24 chain: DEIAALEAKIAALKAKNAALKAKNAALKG

[25] = molecular target: T25, 4H3606-AA; assay: two-hybrid library CCmax; conditions: mean of both orientations
T25 chain: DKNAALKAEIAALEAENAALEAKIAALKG

[26] = molecular target: T26, 4H1351-AA; assay: two-hybrid library CCmax
T26 chain: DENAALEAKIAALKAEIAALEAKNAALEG

[27] = molecular target: T27, 4H3865-AA; assay: two-hybrid library CCmax; conditions: mean of both orientations
T27 chain: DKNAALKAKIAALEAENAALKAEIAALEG

[28] = molecular target: T28, 4H1874-AA; assay: two-hybrid library CCmax; conditions: mean of both orientations
T28 chain: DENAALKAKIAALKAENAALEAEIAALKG

[29] = molecular target: T29, 4H982-AA; assay: two-hybrid library CCmax; conditions: mean of both orientations
T29 chain: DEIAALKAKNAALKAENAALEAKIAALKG

[30] = molecular target: T30, 4H3162-AA; assay: two-hybrid library CCmax; conditions: mean of both orientations
T30 chain: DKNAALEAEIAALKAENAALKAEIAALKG

[31] = molecular target: T31, 4H953-bA; assay: two-hybrid library CCNG1
T31 chain: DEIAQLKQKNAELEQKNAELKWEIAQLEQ

[32] = molecular target: T32, 4H968-bA; assay: two-hybrid library CCNG1
T32 chain: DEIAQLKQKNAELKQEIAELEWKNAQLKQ

[33] = molecular target: T33, 4H918-bA; assay: two-hybrid library CCNG1
T33 chain: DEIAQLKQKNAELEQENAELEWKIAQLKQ

[34] = molecular target: T34, O11-bA; assay: two-hybrid library CCNG1
T34 chain: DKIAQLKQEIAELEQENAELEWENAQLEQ

[35] = molecular target: T35, 4H855-bA; assay: two-hybrid library CCNG1
T35 chain: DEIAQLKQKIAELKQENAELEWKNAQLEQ

[36] = molecular target: T36, 4H235-bN; assay: two-hybrid library CCNG1
T36 chain: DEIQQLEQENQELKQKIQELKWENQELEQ

[37] = molecular target: T37, 4H2444-bN; assay: two-hybrid library CCNG1
T37 chain: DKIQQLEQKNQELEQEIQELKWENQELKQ

[38] = molecular target: T38, 4H796-bN; assay: two-hybrid library CCNG1
T38 chain: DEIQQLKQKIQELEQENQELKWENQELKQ

[39] = molecular target: T39, 4H349-bN; assay: two-hybrid library CCNG1
T39 chain: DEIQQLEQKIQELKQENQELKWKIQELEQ

[40] = molecular target: T40, 4H2760-bN; assay: two-hybrid library CCNG1
T40 chain: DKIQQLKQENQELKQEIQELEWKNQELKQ

[41] = molecular target: T41, 4H2253-bN; assay: two-hybrid library CCNG1
T41 chain: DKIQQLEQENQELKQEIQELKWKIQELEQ

[42] = molecular target: T42, 4H949-bN; assay: two-hybrid library CCNG1
T42 chain: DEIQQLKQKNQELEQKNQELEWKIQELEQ

[43] = molecular target: T43, 4H264-bN; assay: two-hybrid library CCNG1
T43 chain: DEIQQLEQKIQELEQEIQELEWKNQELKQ

[44] = molecular target: T44, 4H3364-bN; assay: two-hybrid library CCNG1
T44 chain: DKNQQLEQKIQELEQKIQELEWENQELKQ

[45] = molecular target: T45, 4H2518-bN; assay: two-hybrid library CCNG1
T45 chain: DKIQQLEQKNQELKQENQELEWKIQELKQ

[46] = molecular target: T46, 4H730-bN; assay: two-hybrid library CCNG1
T46 chain: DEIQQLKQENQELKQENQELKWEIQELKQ

[47] = molecular target: T47, 4H2859-bN; assay: two-hybrid library CCNG1
T47 chain: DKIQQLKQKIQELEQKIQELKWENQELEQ

[48] = molecular target: T48, 4H56-bN; assay: two-hybrid library CCNG1
T48 chain: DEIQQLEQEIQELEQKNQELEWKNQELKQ

[49] = molecular target: T49, 4H3041-bN; assay: two-hybrid library CCNG1
T49 chain: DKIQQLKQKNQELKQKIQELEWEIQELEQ

[50] = molecular target: T50, 4H3297-bN; assay: two-hybrid library CCNG1
T50 chain: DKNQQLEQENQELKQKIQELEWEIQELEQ

[51] = molecular target: T51, 4H932-bN; assay: two-hybrid library CCNG1
T51 chain: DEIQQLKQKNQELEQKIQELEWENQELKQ

[52] = molecular target: T52, 4H2931-bN; assay: two-hybrid library CCNG1
T52 chain: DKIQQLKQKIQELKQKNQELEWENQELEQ

[53] = molecular target: T53, 4H3381-bN; assay: two-hybrid library CCNG1
T53 chain: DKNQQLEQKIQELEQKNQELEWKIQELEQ

[54] = molecular target: T54, 4H2585-bN; assay: two-hybrid library CCNG1
T54 chain: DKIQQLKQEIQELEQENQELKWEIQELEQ

B1: 4H1351-AA (peptide)
chain: DENAALEAKIAALKAEIAALEAKNAALEG
interaction score [1]: -1 | interaction score [2]: -0.804 | interaction score [3]: -1.4 | interaction score [4]: -1.54 | interaction score [5]: -1.24 | interaction score [6]: 2.1 | interaction score [7]: -0.591 | interaction score [8]: -0.748 | interaction score [9]: 0.664 | interaction score [10]: -1.34 | interaction score [11]: -1.37 | interaction score [12]: -1.17 | interaction score [13]: -0.555 | interaction score [14]: -0.583 | interaction score [15]: -1.5 | interaction score [16]: -1.52 | interaction score [17]: -0.254 | interaction score [18]: -1.95 | interaction score [19]: -0.325 | interaction score [20]: 0.934 | interaction score [21]: -1.62 | interaction score [22]: -1.25 | interaction score [23]: -1.65 | interaction score [24]: 0.76 | interaction score [25]: -1.64 | interaction score [26]: 0.323 | interaction score [27]: -1.73 | interaction score [28]: -1.67 | interaction score [29]: -0.516 | interaction score [30]: -1.42

B2: 4H855-bA (peptide)
chain: DEIAQLKQKIAELKQENAELEWKNAQLEQ
interaction score [31]: -1.71 | interaction score [32]: -0.685 | interaction score [33]: -1.16 | interaction score [34]: -3.09 | interaction score [35]: -0.844

B3: 4H2253-bN (peptide)
chain: DKIQQLEQENQELKQEIQELKWKIQELEQ
interaction score [36]: -0.204 | interaction score [37]: 0.131 | interaction score [38]: -1.07 | interaction score [39]: -0.821 | interaction score [40]: 0.286 | interaction score [41]: 1.16 | interaction score [42]: -0.506 | interaction score [43]: 0.574 | interaction score [44]: -1.32 | interaction score [45]: 0.436 | interaction score [46]: -0.523 | interaction score [47]: -0.113 | interaction score [48]: -0.248 | interaction score [49]: -0.989 | interaction score [50]: 0.232 | interaction score [51]: -0.7 | interaction score [52]: -0.437 | interaction score [53]: -0.558 | interaction score [54]: -1.66
